The source of these data is US20050014687A1.

The assay addresses CG57008 protein, membrane bound (HAVcr-1, Hepatitis A virus cellular receptor 1) (human). The assay is described as follows: flow cytometry on polarized human CD4+ Th2 cells, 10 ug/ml; isotype control. Background: In flow cytometry, cells or beads pass a laser one at a time.

Consider “PK16.3 isotype matched control mAb (antibody)”, for which the geometric mean of the fluorescence intensity turned out to be 8.4.
